The numbers were not newly measured in publication PMC10586765, which cites them from elsewhere.

The target of the data set is UBL4A (Homo sapiens) (UniProt P11441). The data set can be described thus: surface plasmon resonance.
Sequence of UniProt P11441 (P11441 whole entry): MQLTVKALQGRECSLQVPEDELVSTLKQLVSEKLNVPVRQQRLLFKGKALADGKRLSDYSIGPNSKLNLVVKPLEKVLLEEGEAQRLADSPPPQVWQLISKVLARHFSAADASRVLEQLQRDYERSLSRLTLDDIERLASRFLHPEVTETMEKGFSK

Broadly, the Kd is the constant that tells how readily two partners part at equilibrium. For BAG6 (from UniProt P46379), the Kd is 2.2 nM.
